Laboratory results as given in US20200024330A1.

Assays:
Experiment in all cases: cell-based or functional assay
[1] = target: HIV-1 92BR020 envelope glycoprotein (Env) on pseudovirus (HIV-1)
[2] = target: HIV-1 92RW020 envelope glycoprotein (Env) on pseudovirus (HIV-1)
[3] = target: HIV-1 Env of isolate 6535.3 (HIV-1)
[4] = target: HIV-1 Env of isolate 92BR020 (HIV-1)
[5] = target: HIV-1 Env of isolate 92RW008 (clade A), on pseudovirus (HIV-1)
[6] = target: HIV-1 Env of isolate 92RW009 (clade A), on pseudovirus (HIV-1)
[7] = target: HIV-1 Env of isolate 92TH021 (pseudovirus) (HIV-1)
[8] = target: HIV-1 Env of isolate 92UG001 (subtype D), on pseudovirus (HIV-1)
[9] = target: HIV-1 Env of isolate 92UG005 (subtype D), on pseudovirus (HIV-1)
[10] = target: HIV-1 Env of isolate 92UG024 (subtype D), on pseudovirus (HIV-1)
[11] = target: HIV-1 Env of isolate 92UG031 (pseudovirus) (HIV-1)
[12] = target: HIV-1 Env of isolate 92UG037 (pseudovirus) (HIV-1)
[13] = target: HIV-1 Env of isolate 92UG046 (subtype D), on pseudovirus (HIV-1)
[14] = target: HIV-1 Env of isolate 92UG114 (subtype D), on pseudovirus (HIV-1)
[15] = target: HIV-1 Env of isolate 92WR020 (pseudovirus) (HIV-1)
[16] = target: HIV-1 Env of isolate 92WR021 (pseudovirus) (HIV-1)
[17] = target: HIV-1 Env of isolate 92WR024 (pseudovirus) (HIV-1)
[18] = target: HIV-1 Env of isolate 92WR026 (pseudovirus) (HIV-1)
[19] = target: HIV-1 Env of isolate 93TH305 (HIV-1)
[20] = target: HIV-1 Env of isolate 93UG077 (pseudovirus) (HIV-1)
[21] = target: HIV-1 Env of isolate 93WR029 (pseudovirus) (HIV-1)
[22] = target: HIV-1 Env of isolate 94 KE 105 (pseudovirus) (HIV-1)
[23] = target: HIV-1 Env of isolate 94UG103 (pseudovirus) (HIV-1)
[24] = target: HIV-1 Env of isolate 98CN006 (subtype CRF08 BC), on pseudovirus (HIV-1)
[25] = target: HIV-1 Env of isolate 98CN009 (subtype CRF07_BC), on pseudovirus (HIV-1)
[26] = target: HIV-1 Env of isolate APV_13 (HIV-1)
[27] = target: HIV-1 Env of isolate APV_17 (HIV-1)
[28] = target: HIV-1 Env of isolate APV_6 (HIV-1)
[29] = target: HIV-1 Env of isolate CAAN.A2 (HIV-1)
[30] = target: HIV-1 Env of isolate CMU02 (pseudovirus) (HIV-1)
[31] = target: HIV-1 Env of isolate JRFL (HIV-1)
[32] = target: HIV-1 Env of isolate MG RM-A-005 (pseudovirus) (HIV-1)
[33] = target: HIV-1 Env of isolate MG RM-A-006 (pseudovirus) (HIV-1)
[34] = target: HIV-1 Env of isolate MG RM-A-007 (pseudovirus) (HIV-1)
[35] = target: HIV-1 Env of isolate MG RM-A-008 (pseudovirus) (HIV-1)
[36] = target: HIV-1 Env of isolate MG RM-A-009 (pseudovirus) (HIV-1)
[37] = target: HIV-1 Env of isolate MG RM-A-010 (pseudovirus) (HIV-1)
[38] = target: HIV-1 Env of isolate MG RM-A-011 (pseudovirus) (HIV-1)
[39] = target: HIV-1 Env of isolate MG RM-A-012 (pseudovirus) (HIV-1)
[40] = target: HIV-1 Env of isolate MG RM-A-013 (pseudovirus) (HIV-1)
[41] = target: HIV-1 Env of isolate MG RM-A-014 (pseudovirus) (HIV-1)
[42] = target: HIV-1 Env of isolate MGRM-AE-001 (pseudovirus) (HIV-1)
[43] = target: HIV-1 Env of isolate MGRM-AE-002 (pseudovirus) (HIV-1)
[44] = target: HIV-1 Env of isolate MGRM-AE-003 (pseudovirus) (HIV-1)
[45] = target: HIV-1 Env of isolate MGRM-AE-004 (pseudovirus) (HIV-1)
[46] = target: HIV-1 Env of isolate MGRM-AE-005 (pseudovirus) (HIV-1)
[47] = target: HIV-1 Env of isolate MGRM-AE-006 (pseudovirus) (HIV-1)
[48] = target: HIV-1 Env of isolate MGRM-Chronic-B-001 (HIV-1)
[49] = target: HIV-1 Env of isolate MGRM-Chronic-B-002 (HIV-1)
[50] = target: HIV-1 Env of isolate MGRM-Chronic-B-003 (HIV-1)
[51] = target: HIV-1 Env of isolate MGRM-Chronic-B-004 (HIV-1)
[52] = target: HIV-1 Env of isolate MGRM-Chronic-B-008 (HIV-1)
[53] = target: HIV-1 Env of isolate MGRM-D-001 (subtype D), on pseudovirus (HIV-1)
[54] = target: HIV-1 Env of isolate MGRM-D-002 (subtype D), on pseudovirus (HIV-1)
[55] = target: HIV-1 Env of isolate MGRM-D-003 (subtype D), on pseudovirus (HIV-1)
[56] = target: HIV-1 Env of isolate MGRM-D-004 (subtype D), on pseudovirus (HIV-1)
[57] = target: HIV-1 Env of isolate MGRM-D-005 (subtype D), on pseudovirus (HIV-1)
[58] = target: HIV-1 Env of isolate MGRM-D-008 (subtype D), on pseudovirus (HIV-1)
[59] = target: HIV-1 Env of isolate VLGCA1 (pseudovirus) (HIV-1)

Chain of 4980_N08 (PGT-143) (antibody) (VH): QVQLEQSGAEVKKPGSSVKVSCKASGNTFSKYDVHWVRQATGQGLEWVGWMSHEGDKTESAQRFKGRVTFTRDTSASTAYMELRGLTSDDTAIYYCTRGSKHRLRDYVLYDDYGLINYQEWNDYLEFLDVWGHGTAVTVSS
Chain of 4980_N08 (PGT-143) (antibody) (VL): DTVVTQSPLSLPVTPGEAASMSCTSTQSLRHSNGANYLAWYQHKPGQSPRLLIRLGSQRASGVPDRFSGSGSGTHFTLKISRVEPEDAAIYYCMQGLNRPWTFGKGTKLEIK

In the case of 4980_N08 (PGT-143) (antibody), the IC50 (ug/ml), neutralizing activity [1] was over 10 µg/mL, the IC50 (ug/ml), neutralizing activity [2] was over 10 µg/mL and the IC50 [3] was over 50 µg/mL. The IC50 [4] was 25.9 µg/mL, the IC50, single-round pseudovirus neutralization [5] was 0.385 µg/mL and the IC50, single-round pseudovirus neutralization [6] was 0.01 µg/mL. The IC50 (µg/mL), pseudovirus neutralization [7] was 0.003 µg/mL, the IC50, pseudovirus neutralization [8] was over 50 µg/mL and the IC50, pseudovirus neutralization [9] was over 50 µg/mL. For the same substance, the IC50, pseudovirus neutralization [10] was over 50 µg/mL, the IC50 (µg/mL), pseudovirus neutralization [11] was 0.095 µg/mL and the IC50 (µg/mL), pseudovirus neutralization [12] was 0.854 µg/mL. For the same substance, the IC50, pseudovirus neutralization [13] was over 50 µg/mL, the IC50, pseudovirus neutralization [14] was over 50 µg/mL and the IC50 (µg/mL), pseudovirus neutralization [15] was over 50 µg/mL. It also gave an IC50 (µg/mL), pseudovirus neutralization [16] of over 50 µg/mL, an IC50 (µg/mL), pseudovirus neutralization [17] of 0.122 µg/mL and an IC50 (µg/mL), pseudovirus neutralization [18] of 5.36 µg/mL. The IC50 [19] was 17.3 µg/mL, the IC50 (µg/mL), pseudovirus neutralization [20] was over 50 µg/mL and the IC50 (µg/mL), pseudovirus neutralization [21] was 0.053 µg/mL. The IC50 (µg/mL), pseudovirus neutralization [22] was 0.368 µg/mL, the IC50 (µg/mL), pseudovirus neutralization [23] was over 50 µg/mL and the IC50, pseudovirus neutralization [24] was over 50 µg/mL. It also gave an IC50, pseudovirus neutralization [25] of 10.2 µg/mL, an IC50 [26] of over 50 µg/mL and an IC50 [27] of 1.11 µg/mL. The IC50 [28] was 14 µg/mL, the IC50 [29] was over 50 µg/mL and the IC50 (µg/mL), pseudovirus neutralization [30] was over 50 µg/mL. It also gave an IC50 [31] of over 50 µg/mL, an IC50 (µg/mL), pseudovirus neutralization [32] of 7.48 µg/mL and an IC50 (µg/mL), pseudovirus neutralization [33] of over 50 µg/mL. It also gave an IC50 (µg/mL), pseudovirus neutralization [34] of over 50 µg/mL, an IC50 (µg/mL), pseudovirus neutralization [35] of over 50 µg/mL and an IC50 (µg/mL), pseudovirus neutralization [36] of 0.05 µg/mL. The IC50 (µg/mL), pseudovirus neutralization [37] was 0.019 µg/mL, the IC50 (µg/mL), pseudovirus neutralization [38] was over 50 µg/mL and the IC50 (µg/mL), pseudovirus neutralization [39] was over 50 µg/mL. It also gave an IC50 (µg/mL), pseudovirus neutralization [40] of 9.24 µg/mL, an IC50 (µg/mL), pseudovirus neutralization [41] of 1.07 µg/mL and an IC50 (µg/mL), pseudovirus neutralization [42] of over 50 µg/mL. For the same substance, the IC50 (µg/mL), pseudovirus neutralization [43] was over 50 µg/mL, the IC50 (µg/mL), pseudovirus neutralization [44] was over 50 µg/mL and the IC50 (µg/mL), pseudovirus neutralization [45] was 0.002 µg/mL. The IC50 (µg/mL), pseudovirus neutralization [46] was over 50 µg/mL, the IC50 (µg/mL), pseudovirus neutralization [47] was over 50 µg/mL and the IC50 [48] was over 50 µg/mL. It also gave an IC50 [49] of over 50 µg/mL, an IC50 [50] of 0.854 µg/mL and an IC50 [51] of 0.395 µg/mL. The IC50 [52] was over 50 µg/mL, the IC50, pseudovirus neutralization [53] was over 50 µg/mL and the IC50, pseudovirus neutralization [54] was over 50 µg/mL. The IC50, pseudovirus neutralization [55] was over 50 µg/mL, the IC50, pseudovirus neutralization [56] was over 50 µg/mL and the IC50, pseudovirus neutralization [57] was 1.41 µg/mL. The IC50, pseudovirus neutralization [58] was 0.153 µg/mL and the IC50 (µg/mL), pseudovirus neutralization [59] was 17.4 µg/mL.
